Test results reported in patent US20220056125A1 (CEPHALON, published 2022).
Positions count from the first letter of the chain named. Values joined by “and” are separate entries in the source; they are usually repeats but may differ in a detail not shown here. Equal entries are not always repeated.

Columns and labels:
human PAR-2 [1] = biological target: T1, human PAR-2 (human, UniProt P55085 26-397); test: cell-based or functional assay
T1 sequence: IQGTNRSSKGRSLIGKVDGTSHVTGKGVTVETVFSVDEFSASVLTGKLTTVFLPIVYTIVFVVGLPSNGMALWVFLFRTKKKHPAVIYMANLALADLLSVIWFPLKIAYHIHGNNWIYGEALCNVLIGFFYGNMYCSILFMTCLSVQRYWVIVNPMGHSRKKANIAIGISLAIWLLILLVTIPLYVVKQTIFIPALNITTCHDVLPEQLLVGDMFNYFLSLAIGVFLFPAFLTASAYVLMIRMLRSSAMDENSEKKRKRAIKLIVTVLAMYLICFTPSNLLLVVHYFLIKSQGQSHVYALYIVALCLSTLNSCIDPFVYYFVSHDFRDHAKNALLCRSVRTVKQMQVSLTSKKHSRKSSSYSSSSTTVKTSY

human PAR-1 = biological target: T2, human PAR-1 (human, UniProt P25116 22-425); test: flow cytometry, transfected Expi293F cells
T2 construct: also called huPAR-1
T2 sequence: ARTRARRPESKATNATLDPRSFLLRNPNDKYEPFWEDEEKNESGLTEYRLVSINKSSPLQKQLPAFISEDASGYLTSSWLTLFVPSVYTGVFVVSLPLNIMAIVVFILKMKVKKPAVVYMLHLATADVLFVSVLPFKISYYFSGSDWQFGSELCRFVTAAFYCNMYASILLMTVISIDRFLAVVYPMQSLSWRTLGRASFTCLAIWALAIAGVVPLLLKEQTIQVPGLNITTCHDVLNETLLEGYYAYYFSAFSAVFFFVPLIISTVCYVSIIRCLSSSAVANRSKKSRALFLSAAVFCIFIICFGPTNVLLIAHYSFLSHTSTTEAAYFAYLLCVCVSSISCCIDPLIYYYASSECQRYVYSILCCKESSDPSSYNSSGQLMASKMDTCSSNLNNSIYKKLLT
Procedure: Paired heavy and light chains encoded by these sequence pairs were expressed as a full length human IgG4 isotype antibodies and assessed for PAR-2 binding and selectivity by flow cytometry. […] Cells were used for flow cytometric analysis 36-48 hours post-transfection. Use of Nt-PAR-2 as a target allowed antibodies which bound the N-terminal residues of PAR-2 (which comprise the protease-cleavage sites on PAR-2) to be distinguished from antibodies which bound other extracellular sites on PAR-2, such as the PAR-2-activating ligand-binding site(s). Expi293F cells, transiently expressing one of each of the different target proteins were labelled with different intensities of a single fluorphor Encoder dye (Intellicyt) for 10 mins at either 1 in 250 dilution for high intensity and/or 1 in 1500 dilution for moderate intensity, enabling simultaneous analysis of multiple cell populations. After washing the cells were then mixed in an equal ratio with the unlabeled cell type and analyzed for antibody binding.
The cells were plated in 96 well plates at 2×10⁵ cells/well. Following a wash step using Phosphate buffered saline (PBS), the primary antibody (anti-PAR-2 antibody) was added at a concentration of 10 μg/mL in 50 μL of FACS buffer (0.5% w/v BSA in PBS) to each well and incubated for 10-15 mins. Following a wash step, secondary antibody (anti-human Fc-FITC) was added to the wells at 1:200 dilution in 50 μL for 10-15 mins. Following a washing step, the cells were re-suspended in fluorescence-activated cell sorting (FACS) buffer. The flow cytometry analysis was performed on an Intellicyt iQue screener. Gates were drawn around the different intensities of encoder dye-positive cells and these populations were analyzed separately from each other and the unlabeled cells for binding by the primary antibody.

human PAR-2 [2] = biological target: T1, human PAR-2; test: cell-based or functional assay; remark: listed apart in the source
human PAR-2 [3] = biological target: T1, human PAR-2; test: cell-based or functional assay; remark: listed apart in the source
human PAR-2 [4] = biological target: T1, human PAR-2; test: cell-based or functional assay; remark: listed apart in the source
human PAR-2 [5] = biological target: T1, human PAR-2; test: cell-based or functional assay; remark: listed apart in the source

B1: Ab86 (antibody, human IgG4, V domains shown)
VH: EVQLVESGGGLVQPKGSLKLSCAASGFTFNTYAMHWVRQAPGKGLEWVARIRSKNVHYATYYADSVKDRFTISRDDSQNMLYLQMNNLKTEDTAMYYCVREDYYGSSYDYWGQGTTLTVSS
VL: DIVMTQSHKFMSTSLGDRVSITCKASQDVGSAVAWHQQKPGQSPKVLIYWASNRHTGVPDRFTGSGSGTDFTLTISNVQSEDLADYFCQQYSSYPFTFGSGTKLEIK
notes: also called Anti-PAR-2 antibody # 86
IC50, PAR-2 β-arrestin cell assay (human PAR-2 [1]): 9.9 nM | binding result (human PAR-1): no binding (tested: 10 µg/mL)

B2: Ab87 (antibody, human IgG4, V domains shown)
VH: B1 VH with N30Y, T31S, K43R
VL: B1 VL with L15V, G30R, V46L
notes: also called Anti-PAR-2 antibody # 87
IC50, PAR-2 β-arrestin cell assay (human PAR-2 [1]): 5.6 nM | binding result (human PAR-1): no binding (tested: 10 µg/mL)

B3: Ab84 (antibody, human IgG4, V domains shown)
VH: B1 VH with V5I, T31S, N79S, Y97F
VL: B1 VL with L15V, V46L, A51T, S65R, G66R, S93T
notes: also called Anti-PAR-2 antibody # 84
IC50, PAR-2 β-arrestin cell assay (human PAR-2 [1]): 6 nM | binding result (human PAR-1): no binding (tested: 10 µg/mL)

B4: Ab114 (antibody, human IgG4, V domains shown)
VH: QVQLQQSGPELVKPGASVKISCKTSGFTFTSYYIHWVKQRPGQGLEWIGWIYPGSGNTYYNERFKGKATLTADTSSSTASMQLSSLTSEDSAVYYCANGPLFYGSSYWYFDVWGTGTTVTVSS
VL: DVQITQSPSYLAASPGETITINCRASKSISRYLAWYQEKPGKTNKLLIYSGSTLQSGVPSRFSGSGFGTDFTLTISSLEPEDFAMYYCQQHNKYPLTFGAGTKLELK
notes: also called Anti-PAR-2 antibody # 114
IC50, PAR-2 β-arrestin cell assay (human PAR-2 [1]): 36.7 nM | binding result (human PAR-1): no binding (tested: 10 µg/mL)

B5: P24E976 (antibody, human IgG4 S228P, kappa, V domains shown)
VH: QVQLVQSGAEVKKPGSSVKVSCKASGFSLSSYAISWVRQAPGQGLEWMGVIWGNQNVYYAQKFQGRVTITADESTSTAYMELSSLRSEDTAVYYCARWKGYKDYPFDYWGQGTLVTVSS
VL: EIVLTQSPATLSLSPGERATLSCRASQNVYKWLDWYQQKPGQAPRLLIYNAYSRATGIPARFSGSGSGRDFTLTISSLEPEDFAVYYCQQHHSGWTFGGGTKVEIKR
PAR-2 β-arrestin cell based assay IC50, 2 µM SLIGKV (human PAR-2 [2]): 0.9 nM and 1.26 nM | Calcium flux IC50 (human PAR-2 [3]): 15.9 nM and 15.3 nM and 7.1 nM and 5.9 nM | IL-6 release in A549 cells IC50 (human PAR-2 [3]): 5.63 nM | IL-8 release in A549 cells IC50 (human PAR-2 [3]): 4.25 nM

B6: 309-6e (antibody, human IgG4 S228P, kappa, V domains shown)
VH: EVQLVESGGGLVQPGGSLRLSCAASGFSLNSYGVIWVRQAPGKGLEWVSVIWGNGNTYYNDSVKGRFTISRDNSKNTLYLQMNSLRAEDTAVYYCARWRGYKDYPFDYWGQGTLVTVSS
VL: B5 VL with R24K, V29I, W32Y, A51T, Y52N, R54L, A55H, Q89L, H92N
PAR-2 calcium flux cell assay IC50 (human PAR-2 [4]): 12.7 nM | PAR-2 β-arrestin cell assay IC50, 1 µM SLIGKV (human PAR-2 [4]): 5.6 nM

B7: 309-11e (antibody, human IgG4 S228P, kappa, V domains shown)
VH: QVQLQESGPGLVKPSETLSLTCTVSGFSLNSYGVIWIRQPPGKGLEWIGVIWGNGNTYYNPSLKSRVTISVDTSKNQFSLKLSSVTAADTAVYYCARWRGYKDYPFDYWGQGTLVTVSS
VL: B5 VL with R24K, V29I, W32Y, A51T, Y52N, R54L, A55H, Q89L, H92N
PAR-2 calcium flux cell assay IC50 (human PAR-2 [4]): 22.8 nM | PAR-2 β-arrestin cell assay IC50, 1 µM SLIGKV (human PAR-2 [4]): 6.1 nM

B8: 309-12e (antibody, human IgG4 S228P, kappa, V domains shown)
VH: B7 VH with E6Q, S7W, P9A, V12L, T23A, S25Y
VL: B5 VL with R24K, V29I, W32Y, A51T, Y52N, R54L, A55H, Q89L, H92N
PAR-2 calcium flux cell assay IC50 (human PAR-2 [4]): 8.3 nM | PAR-2 β-arrestin cell assay IC50, 1 µM SLIGKV (human PAR-2 [4]): 2.3 nM

B9: 309-4e (antibody, human IgG4 S228P, kappa, V domains shown)
VH: B5 VH with S30N, A33G, I34V, S35I, Q55G, V57T, A60N, K99R
VL: B5 VL with R24K, V29I, W32Y, A51T, Y52N, R54L, A55H, Q89L, H92N
PAR-2 calcium flux cell assay IC50 (human PAR-2 [4]): 7.6 nM | PAR-2 β-arrestin cell assay IC50, 1 µM SLIGKV (human PAR-2 [4]): 5.8 nM | PAR-2 β-arrestin cell based assay IC50, 2 µM SLIGKV (human PAR-2 [2]): 2.1 nM and 5.9 nM

B10: P24E1099 (antibody, human IgG4 S228P, kappa, V domains shown)
VH: B5 VH
VL: B5 VL with Y52N
PAR-2 β-arrestin cell based assay IC50, 2 µM SLIGKV (human PAR-2 [2]): 1.37 nM | Calcium flux IC50 (human PAR-2 [3]): 12.3 nM | IL-6 release in A549 cells IC50 (human PAR-2 [3]): 6.74 nM | IL-8 release in A549 cells IC50 (human PAR-2 [3]): 4.89 nM

B11: P24E1103 (antibody, human IgG4 S228P, kappa, V domains shown)
VH: B5 VH
VL: B5 VL with Y52N, S53N
PAR-2 β-arrestin cell based assay IC50, 2 µM SLIGKV (human PAR-2 [2]): 1.54 nM | Calcium flux IC50 (human PAR-2 [3]): 12.7 nM | IL-6 release in A549 cells IC50 (human PAR-2 [3]): 7.18 nM | IL-8 release in A549 cells IC50 (human PAR-2 [3]): 5.17 nM

B12: 309-6i (antibody, human IgG4 S228P, kappa, V domains shown)
VH: B6 VH
VL: DIQMTQSPSSLSASVGDRVTITCKASQNIYKYLDWYQQKPGKAPKRLIYNTNSLHTGVPSRFSGSGSGTEFTLTISSLQPEDFATYYCLQHNSGWTFGGGTKVEIKR
PAR-2 β-arrestin cell assay IC50, 1 µM SLIGKV (human PAR-2 [4]): 40.6 nM

B13: Ab1 (antibody, human IgG4, V domains shown)
VH: EVQLVEFGGGLVQPKGSLKLSCAASGFTFNTNAMHWVRQAPGKGLEWVARIGSKSSYFATYYADSVKDRFTISRDDSRSMFYLQMNNLKTEDTAMYYCVREDYYGSSFDLWGQGTTLTVSS
VL: QIVLSQSPAILSASPGEKVTMTCRASSSLPYIHWYQQKPGSSPRPWIYATSNLASGVPARFSGRGSGTSYSLTISRMEAEDAATYYCQQWSSTPPTFGGGSKLEIK
notes: also called Anti-PAR-2 antibody # 1
IC50, PAR-2 β-arrestin cell assay (human PAR-2 [1]): 8.4 nM | IC50, PAR-2 calcium flux assay (trypsin EC80) (human PAR-2 [5]): 50.5 nM | binding result (human PAR-1): no binding (tested: 10 µg/mL)

B14: Ab77 (antibody, human IgG4, V domains shown)
VH: B1 VH with E6G, R52G, N55S, V56S, H57Y, N79S
VL: B1 VL with T13I, L15V, S31T, P40A, V46L, N53A, A84T, Y86F, S93N
notes: also called Anti-PAR-2 antibody # 77
IC50, PAR-2 β-arrestin cell assay (human PAR-2 [1]): 16.5 nM | IC50, PAR-2 calcium flux assay (trypsin EC80) (human PAR-2 [5]): 169 nM | binding result (human PAR-1): no binding (tested: 10 µg/mL)

B15: Ab39 (antibody, human IgG4, V domains shown)
VH: B13 VH with F7S, N32Y, F58Y, D75A, R78Q, F81L, M95I, S106C, L110Y
VL: QIVLSQSPVILSTSPGEKVTMTCRANSRVIYVHWYQQKPGSSPKPWIFATSNLASGVPSRFSGSGSGTSYSLTISRVETEDAATYYCQHCGNNPPTFGSGTKLEIK
notes: also called Anti-PAR-2 antibody # 39
IC50, PAR-2 β-arrestin cell assay (human PAR-2 [1]): 4.9 nM | IC50, PAR-2 calcium flux assay (trypsin EC80) (human PAR-2 [5]): 29 nM | binding result (human PAR-1): no binding (tested: 10 µg/mL)

B16: Ab20 (antibody, human IgG4, V domains shown)
VH: EVQLVESGGGLVQPKGSLKLSCAASGFTFNIYAMHWVRQAPGKGLEWVARIGSKSSNYATNYADSVKDRFTISRDDSQSMLCLQMNNLKTEDTAMYYCVREDYYGNSFDSWGQGTTLAVSS
VL: QIVLSQSPAILSASPGEKVTMTCRTSSSVIYIHWYQQKSGSSPKPWIYATSNLASGVPTRFSGSGSGTSYSLTISRVEAEDAATYYCHHWRSNPPTFGGGTKLEIK
notes: also called Anti-PAR-2 antibody # 20
IC50, PAR-2 β-arrestin cell assay (human PAR-2 [1]): 10.7 nM | IC50, PAR-2 calcium flux assay (trypsin EC80) (human PAR-2 [5]): 73.2 nM | binding result (human PAR-1): no binding (tested: 10 µg/mL)

B17: Ab392 (antibody, human IgG4, V domains shown)
VH: EVQLVESGGGLVQPGRSLKLSCVASGFTFNNKWMTWIRQAPGKGLEWIASITNTGGRTFYPDSVKGRFTISRDDAKSTLYLQMNSLRSEDTATYYCTRATIRRGASYFDYWGQGVMVTVSS
VL: DIQMTQSPHSLSASLGEGVSIECLASEGISNYLAWFQQKPGKSPQLLIYYASSLQDGVPSRFSGSGSGTQYSLKISNMQPEDEGVYYCQQGYKYPWTFGGGTKLELK
notes: also called Anti-PAR-2 antibody # 392
IC50, PAR-2 β-arrestin cell assay (human PAR-2 [1]): 13.7 nM | binding result (human PAR-1): no binding (tested: 10 µg/mL)
